Assay results as given in paper PMC5389416 (Journal of molecular biology, 2017).

Experiments:
Test in all cases: HDX-MS
[1] = molecular target: Murine RelA(19-321) (mouse, UniProt Q04207 19-321)
[2] = molecular target: T1, Murine N-terminal hexahistidine-p50(39-350) (mouse, UniProt P25799 39-350)
T1 sequence (looked up): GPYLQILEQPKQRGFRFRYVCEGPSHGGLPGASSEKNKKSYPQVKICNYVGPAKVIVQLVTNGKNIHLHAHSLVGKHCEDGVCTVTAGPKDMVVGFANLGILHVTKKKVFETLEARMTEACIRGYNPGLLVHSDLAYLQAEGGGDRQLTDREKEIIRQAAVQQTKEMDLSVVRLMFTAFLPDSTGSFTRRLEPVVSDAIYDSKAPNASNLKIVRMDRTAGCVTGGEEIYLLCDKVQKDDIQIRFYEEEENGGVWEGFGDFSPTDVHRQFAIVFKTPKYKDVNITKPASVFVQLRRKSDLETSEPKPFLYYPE

[3] = molecular target: Murine dimerization domain p50(248-350)/RelA(190-321) (mouse, UniProt P25799 248-350; Q04207 190-321)

Measured: binding result

Chain of Murine RelA(19-321) (Q04207 19-321): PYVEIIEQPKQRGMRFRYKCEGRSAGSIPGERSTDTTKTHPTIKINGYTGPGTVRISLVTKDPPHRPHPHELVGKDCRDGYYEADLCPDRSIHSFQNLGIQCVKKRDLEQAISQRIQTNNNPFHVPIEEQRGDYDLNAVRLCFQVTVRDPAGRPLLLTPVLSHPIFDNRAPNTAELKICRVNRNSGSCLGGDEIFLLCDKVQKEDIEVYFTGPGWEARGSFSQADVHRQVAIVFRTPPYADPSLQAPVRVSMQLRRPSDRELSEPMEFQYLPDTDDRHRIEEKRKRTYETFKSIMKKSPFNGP
Chain of Murine dimerization domain p50(248-350)/RelA(190-321) (Q04207 190-321, one chain of several): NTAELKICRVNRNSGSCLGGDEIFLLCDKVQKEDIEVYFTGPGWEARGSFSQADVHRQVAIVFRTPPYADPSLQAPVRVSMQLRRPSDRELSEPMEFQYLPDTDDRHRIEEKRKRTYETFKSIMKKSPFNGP

B1: Homo sapiens IκBα(67-287) (domain or fragment, human, UniProt P25963 67-287, looked up)
chain: KQQLTEDGDSFLHLAIIHEEKALTMEVIRQVKGDLAFLNFQNNLQQTPLHLAVITNQPEIAEALLGAGCDPELRDFRGNTPLHLACEQGCLASVGVLTQSCTTPHLHSILKATNYNGHTCLHLASIHGYLGIVELLVSLGADVNAQEPCNGRTALHLAVDLQNPDLVSLLLKCGADVNRVTYQGYSPYQLTWGRPSTRIQQQLGQLTLENLQMLPESEDEE
binds: all assays above
